Source: patent US20220010021A1 (Sanofi, published 2022)

Legend:
Assay in all cases: cell-based or functional assay
[1] = target: human FGFR1c/KLB cell surface receptor complex on iLite FGF21 reporter cells (human, UniProt P11362 22-822; Q86Z14 1-1044)
[2] = target: cell surface receptor composed of FGFR1c and co-receptor beta-Klotho (KLB) (human, UniProt P11362 22-822; Q86Z14 1-1044)
[3] = target: human FGFR1c/KLB receptor complex on iLite FGF21 Assay Ready Cells (human, UniProt P11362 22-822; Q86Z14 1-1044)
Throughout, for Mean E max (%): reference of the scale not given here.
Throughout, for Mean E max, Luciferase reporter gene assay: reference of the scale not given here.

Chain of human FGFR1c/KLB cell surface receptor complex on iLite FGF21 reporter cells (P11362 22-822, chain 1 of 2): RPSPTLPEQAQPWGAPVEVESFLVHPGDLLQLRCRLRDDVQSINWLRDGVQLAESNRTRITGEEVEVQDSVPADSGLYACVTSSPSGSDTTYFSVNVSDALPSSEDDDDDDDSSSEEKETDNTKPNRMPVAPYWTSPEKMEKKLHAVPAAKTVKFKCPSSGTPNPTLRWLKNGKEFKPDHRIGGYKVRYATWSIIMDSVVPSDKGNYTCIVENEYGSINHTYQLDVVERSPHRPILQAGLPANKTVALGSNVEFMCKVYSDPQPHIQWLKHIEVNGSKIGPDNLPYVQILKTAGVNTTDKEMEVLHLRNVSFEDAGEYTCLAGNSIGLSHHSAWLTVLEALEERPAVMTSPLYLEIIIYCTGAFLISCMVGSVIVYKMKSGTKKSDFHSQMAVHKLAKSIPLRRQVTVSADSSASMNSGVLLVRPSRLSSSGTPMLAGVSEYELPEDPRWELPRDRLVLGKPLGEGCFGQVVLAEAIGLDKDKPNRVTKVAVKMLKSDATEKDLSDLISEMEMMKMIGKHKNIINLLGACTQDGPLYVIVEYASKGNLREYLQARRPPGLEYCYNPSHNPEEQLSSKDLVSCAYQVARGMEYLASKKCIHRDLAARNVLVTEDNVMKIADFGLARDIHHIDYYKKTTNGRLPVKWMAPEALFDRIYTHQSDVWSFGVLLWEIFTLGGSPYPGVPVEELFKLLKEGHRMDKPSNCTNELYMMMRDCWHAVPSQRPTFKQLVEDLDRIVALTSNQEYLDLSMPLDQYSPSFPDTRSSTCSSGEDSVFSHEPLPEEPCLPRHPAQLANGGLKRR
Chain of human FGFR1c/KLB cell surface receptor complex on iLite FGF21 reporter cells (Q86Z14 whole entry, chain 2 of 2): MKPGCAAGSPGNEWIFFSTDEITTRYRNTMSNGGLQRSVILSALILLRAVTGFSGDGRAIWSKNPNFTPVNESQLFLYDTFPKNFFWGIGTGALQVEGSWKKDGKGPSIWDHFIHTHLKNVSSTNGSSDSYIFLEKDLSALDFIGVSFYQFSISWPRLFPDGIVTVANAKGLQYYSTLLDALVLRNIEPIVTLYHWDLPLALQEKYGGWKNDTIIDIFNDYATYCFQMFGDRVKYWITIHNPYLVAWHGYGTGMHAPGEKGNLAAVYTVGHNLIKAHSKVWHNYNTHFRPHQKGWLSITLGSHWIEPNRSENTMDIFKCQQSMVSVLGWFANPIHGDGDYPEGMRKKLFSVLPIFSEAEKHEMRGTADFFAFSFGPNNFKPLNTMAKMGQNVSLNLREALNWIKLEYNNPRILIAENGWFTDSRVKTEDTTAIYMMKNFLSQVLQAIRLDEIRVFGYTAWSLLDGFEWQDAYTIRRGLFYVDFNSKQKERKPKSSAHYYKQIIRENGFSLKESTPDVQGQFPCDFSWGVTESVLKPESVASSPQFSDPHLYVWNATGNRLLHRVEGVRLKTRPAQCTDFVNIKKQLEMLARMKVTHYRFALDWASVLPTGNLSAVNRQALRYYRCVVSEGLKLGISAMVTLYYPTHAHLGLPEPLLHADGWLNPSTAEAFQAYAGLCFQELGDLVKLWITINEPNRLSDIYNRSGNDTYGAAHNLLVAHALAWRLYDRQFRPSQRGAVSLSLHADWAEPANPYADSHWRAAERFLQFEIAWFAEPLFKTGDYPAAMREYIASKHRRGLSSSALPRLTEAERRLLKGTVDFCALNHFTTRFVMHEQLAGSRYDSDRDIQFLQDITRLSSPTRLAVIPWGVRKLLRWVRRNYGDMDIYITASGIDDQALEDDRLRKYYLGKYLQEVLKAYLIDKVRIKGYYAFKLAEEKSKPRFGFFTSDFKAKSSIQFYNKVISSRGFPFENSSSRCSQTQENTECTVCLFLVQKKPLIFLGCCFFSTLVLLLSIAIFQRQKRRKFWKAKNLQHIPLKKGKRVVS
Chain of cell surface receptor composed of FGFR1c and co-receptor beta-Klotho (KLB) (P11362 22-822, chain 1 of 2): as the sequence (P11362 22-822, chain 1 of 2) above
Chain of cell surface receptor composed of FGFR1c and co-receptor beta-Klotho (KLB) (Q86Z14 whole entry, chain 2 of 2): as the sequence (Q86Z14 whole entry, chain 2 of 2) above
Chain of human FGFR1c/KLB receptor complex on iLite FGF21 Assay Ready Cells (P11362 22-822, chain 1 of 2): as the sequence (P11362 22-822, chain 1 of 2) above
Chain of human FGFR1c/KLB receptor complex on iLite FGF21 Assay Ready Cells (Q86Z14 whole entry, chain 2 of 2): as the sequence (Q86Z14 whole entry, chain 2 of 2) above

Mean E max (%) [1] [%] | Mean E max, Luciferase reporter gene assay [2] [%] | Mean EC50, Luciferase reporter gene assay [2] [nM] | Mean E max (%) [3] [%] | Binder
110 |  |  |  | 16H7 variant, light chain G24P (antibody, human IgG4 S228P, lambda, V domains shown) VH: not shown VL: SYVLTQPPSVSVAPGQTARITCGPNNIGSESVHWYQQKPGQAPVLVVYDDSDRPSGIPERFSGSNSGNTATLTISRVEAGDEADYYCQVWDGNSDHVVFGGGTKLTVLG
 | 96 | 0.444 |  | 16H7 light chain variant V97K (antibody, IgG4, V domains shown) VH: not shown VL: SYVLTQPPSVSVAPGQTARITCGGNNIGSESVHWYQQKPGQAPVLVVYDDSDRPSGIPERFSGSNSGNTATLTISRVEAGDEADYYCQVWDGNSDHKVFGGGTKLTVLG
 | 71 | 1.47 |  | 16H7 light chain variant V97H (antibody, IgG4, V domains shown) VH: not shown VL: SYVLTQPPSVSVAPGQTARITCGGNNIGSESVHWYQQKPGQAPVLVVYDDSDRPSGIPERFSGSNSGNTATLTISRVEAGDEADYYCQVWDGNSDHHVFGGGTKLTVLG
 | 65 | 2.55 |  | 16H7 light chain variant V97P (antibody, IgG4, V domains shown) VH: not shown VL: SYVLTQPPSVSVAPGQTARITCGGNNIGSESVHWYQQKPGQAPVLVVYDDSDRPSGIPERFSGSNSGNTATLTISRVEAGDEADYYCQVWDGNSDHPVFGGGTKLTVLG
 | 84 | 0.308 |  | 16H7 light chain variant V97S (antibody, IgG4, V domains shown) VH: not shown VL: SYVLTQPPSVSVAPGQTARITCGGNNIGSESVHWYQQKPGQAPVLVVYDDSDRPSGIPERFSGSNSGNTATLTISRVEAGDEADYYCQVWDGNSDHSVFGGGTKLTVLG
 | -1 |  |  | 16H7 light chain variant V97R (antibody, IgG4, V domains shown) VH: not shown VL: SYVLTQPPSVSVAPGQTARITCGGNNIGSESVHWYQQKPGQAPVLVVYDDSDRPSGIPERFSGSNSGNTATLTISRVEAGDEADYYCQVWDGNSDHRVFGGGTKLTVLG
 | 92 | 0.15 |  | 16H7 light chain variant V97E (antibody, IgG4, V domains shown) VH: not shown VL: SYVLTQPPSVSVAPGQTARITCGGNNIGSESVHWYQQKPGQAPVLVVYDDSDRPSGIPERFSGSNSGNTATLTISRVEAGDEADYYCQVWDGNSDHEVFGGGTKLTVLG
 | 75 | 0.51 |  | 16H7 light chain variant V97G (antibody, IgG4, V domains shown) VH: not shown VL: SYVLTQPPSVSVAPGQTARITCGGNNIGSESVHWYQQKPGQAPVLVVYDDSDRPSGIPERFSGSNSGNTATLTISRVEAGDEADYYCQVWDGNSDHGVFGGGTKLTVLG
104 |  |  |  | 16H7 variant, light chain Q88S (antibody, human IgG4 S228P, lambda, V domains shown) VH: not shown VL: SYVLTQPPSVSVAPGQTARITCGGNNIGSESVHWYQQKPGQAPVLVVYDDSDRPSGIPERFSGSNSGNTATLTISRVEAGDEADYYCSVWDGNSDHVVFGGGTKLTVLG
101 |  |  |  | 16H7 variant, light chain R53V (antibody, human IgG4 S228P, lambda, V domains shown) VH: not shown VL: SYVLTQPPSVSVAPGQTARITCGGNNIGSESVHWYQQKPGQAPVLVVYDDSDVPSGIPERFSGSNSGNTATLTISRVEAGDEADYYCQVWDGNSDHVVFGGGTKLTVLG
104 |  |  |  | 16H7 variant, light chain N25F (antibody, human IgG4 S228P, lambda, V domains shown) VH: not shown VL: SYVLTQPPSVSVAPGQTARITCGGFNIGSESVHWYQQKPGQAPVLVVYDDSDRPSGIPERFSGSNSGNTATLTISRVEAGDEADYYCQVWDGNSDHVVFGGGTKLTVLG
100 |  |  |  | 16H7 variant, light chain R53N (antibody, human IgG4 S228P, lambda, V domains shown) VH: not shown VL: SYVLTQPPSVSVAPGQTARITCGGNNIGSESVHWYQQKPGQAPVLVVYDDSDNPSGIPERFSGSNSGNTATLTISRVEAGDEADYYCQVWDGNSDHVVFGGGTKLTVLG
105 |  |  |  | 16H7 variant, light chain P54A (antibody, human IgG4 S228P, lambda, V domains shown) VH: not shown VL: SYVLTQPPSVSVAPGQTARITCGGNNIGSESVHWYQQKPGQAPVLVVYDDSDRASGIPERFSGSNSGNTATLTISRVEAGDEADYYCQVWDGNSDHVVFGGGTKLTVLG
 |  |  | 100 | 16H7 variant with light chain substitution R53N (antibody, V domains shown) VH: not shown VL: SYVLTQPPSVSVAPGQTARITCGGNNIGSESVHWYQQKPGQAPVLVVYDDSDNPSGIPERFSGSNSGNTATLTISRVEAGDEADYYCQVWDGNSDHVVFGGGTKLTVLG
 |  |  | 105 | 16H7 variant with light chain substitution P54A (antibody, V domains shown) VH: not shown VL: SYVLTQPPSVSVAPGQTARITCGGNNIGSESVHWYQQKPGQAPVLVVYDDSDRASGIPERFSGSNSGNTATLTISRVEAGDEADYYCQVWDGNSDHVVFGGGTKLTVLG
110 |  |  |  | 16H7 variant, light chain S55A (antibody, human IgG4 S228P, lambda, V domains shown) VH: not shown VL: SYVLTQPPSVSVAPGQTARITCGGNNIGSESVHWYQQKPGQAPVLVVYDDSDRPAGIPERFSGSNSGNTATLTISRVEAGDEADYYCQVWDGNSDHVVFGGGTKLTVLG

Continued, binder first:

Binder | Mean E max (%) [1] [%] | Mean E max, Luciferase reporter gene assay [2] [%] | Mean EC50, Luciferase reporter gene assay [2] [nM] | Mean E max (%) [3] [%]
16H7 light chain variant D49P (antibody, IgG4, V domains shown) VH: not shown VL: SYVLTQPPSVSVAPGQTARITCGGNNIGSESVHWYQQKPGQAPVLVVYPDSDRPSGIPERFSGSNSGNTATLTISRVEAGDEADYYCQVWDGNSDHVVFGGGTKLTVLG |  | 96 | 0.195 | 
16H7 light chain variant D49R (antibody, IgG4, V domains shown) VH: not shown VL: SYVLTQPPSVSVAPGQTARITCGGNNIGSESVHWYQQKPGQAPVLVVYRDSDRPSGIPERFSGSNSGNTATLTISRVEAGDEADYYCQVWDGNSDHVVFGGGTKLTVLG |  | 72 | 1.86 | 
16H7 light chain variant H96P (antibody, IgG4, V domains shown) VH: not shown VL: SYVLTQPPSVSVAPGQTARITCGGNNIGSESVHWYQQKPGQAPVLVVYDDSDRPSGIPERFSGSNSGNTATLTISRVEAGDEADYYCQVWDGNSDPVVFGGGTKLTVLG |  | 50 |  | 
16H7 light chain variant D49M (antibody, IgG4, V domains shown) VH: not shown VL: SYVLTQPPSVSVAPGQTARITCGGNNIGSESVHWYQQKPGQAPVLVVYMDSDRPSGIPERFSGSNSGNTATLTISRVEAGDEADYYCQVWDGNSDHVVFGGGTKLTVLG |  | 85 | 0.224 | 
16H7 light chain variant D49F (antibody, IgG4, V domains shown) VH: not shown VL: SYVLTQPPSVSVAPGQTARITCGGNNIGSESVHWYQQKPGQAPVLVVYFDSDRPSGIPERFSGSNSGNTATLTISRVEAGDEADYYCQVWDGNSDHVVFGGGTKLTVLG |  | 94 | 0.256 | 
16H7 light chain variant V97D (antibody, IgG4, V domains shown) VH: not shown VL: SYVLTQPPSVSVAPGQTARITCGGNNIGSESVHWYQQKPGQAPVLVVYDDSDRPSGIPERFSGSNSGNTATLTISRVEAGDEADYYCQVWDGNSDHDVFGGGTKLTVLG |  | 67 | 0.375 | 
16H7 light chain variant V97A (antibody, IgG4, V domains shown) VH: not shown VL: SYVLTQPPSVSVAPGQTARITCGGNNIGSESVHWYQQKPGQAPVLVVYDDSDRPSGIPERFSGSNSGNTATLTISRVEAGDEADYYCQVWDGNSDHAVFGGGTKLTVLG |  | 68 | 2.09 | 
16H7 light chain variant D49L (antibody, IgG4, V domains shown) VH: not shown VL: SYVLTQPPSVSVAPGQTARITCGGNNIGSESVHWYQQKPGQAPVLVVYLDSDRPSGIPERFSGSNSGNTATLTISRVEAGDEADYYCQVWDGNSDHVVFGGGTKLTVLG |  | 92 | 0.529 | 
16H7 light chain variant D49C (antibody, IgG4, V domains shown) VH: not shown VL: SYVLTQPPSVSVAPGQTARITCGGNNIGSESVHWYQQKPGQAPVLVVYCDSDRPSGIPERFSGSNSGNTATLTISRVEAGDEADYYCQVWDGNSDHVVFGGGTKLTVLG |  | 85 | 0.789 | 
16H7 light chain variant D49V (antibody, IgG4, V domains shown) VH: not shown VL: SYVLTQPPSVSVAPGQTARITCGGNNIGSESVHWYQQKPGQAPVLVVYVDSDRPSGIPERFSGSNSGNTATLTISRVEAGDEADYYCQVWDGNSDHVVFGGGTKLTVLG |  | 97 | 0.206 | 
16H7 light chain variant D49E (antibody, IgG4, V domains shown) VH: not shown VL: SYVLTQPPSVSVAPGQTARITCGGNNIGSESVHWYQQKPGQAPVLVVYEDSDRPSGIPERFSGSNSGNTATLTISRVEAGDEADYYCQVWDGNSDHVVFGGGTKLTVLG |  | 87 | 0.193 | 
16H7 light chain variant D50P (antibody, IgG4, V domains shown) VH: not shown VL: SYVLTQPPSVSVAPGQTARITCGGNNIGSESVHWYQQKPGQAPVLVVYDPSDRPSGIPERFSGSNSGNTATLTISRVEAGDEADYYCQVWDGNSDHVVFGGGTKLTVLG |  | 77 | 0.124 | 
16H7 light chain variant D49I (antibody, IgG4, V domains shown) VH: not shown VL: SYVLTQPPSVSVAPGQTARITCGGNNIGSESVHWYQQKPGQAPVLVVYIDSDRPSGIPERFSGSNSGNTATLTISRVEAGDEADYYCQVWDGNSDHVVFGGGTKLTVLG |  | 83 | 0.149 | 
16H7 light chain variant D49T (antibody, IgG4, V domains shown) VH: not shown VL: SYVLTQPPSVSVAPGQTARITCGGNNIGSESVHWYQQKPGQAPVLVVYTDSDRPSGIPERFSGSNSGNTATLTISRVEAGDEADYYCQVWDGNSDHVVFGGGTKLTVLG |  | 89 | 0.107 | 
16H7 light chain variant D49K (antibody, IgG4, V domains shown) VH: not shown VL: SYVLTQPPSVSVAPGQTARITCGGNNIGSESVHWYQQKPGQAPVLVVYKDSDRPSGIPERFSGSNSGNTATLTISRVEAGDEADYYCQVWDGNSDHVVFGGGTKLTVLG |  | 83 | 1.34 | 
